Assays:
[1] = tested on: cumulus cells; test: BDNF production and secretion by cultured cumulus cells (BDNF ELISA of culture medium); type: cell-based, human; settings: 10 μM forskolin, cumulus cells cultured 24 h, P=0.016
Text: Cumulus cells, which are a mass of epithelial cells surrounding the ovum in the ovarian follicle, were removed from oocytes in preparation for IVF and were dissociated in hyaluronidase (100 IU/ml, Sigma Chemical Company, St. Louis, Mo.) then washed twice with HBSS. The resulting preparation of cumulus cells was of ninety-nine percent (99%) pure.
For the purpose of examining the regulation of BDNF expression by cAMP, cumulus cells were combined between two subjects for each experiment. […] The culture media was collected after 24 hours of culture for assay of BDNF.
BDNF levels were determined using commercially available BDNF E max® immumoassay system (Promega, Madison, Wis.). The ELISA's were performed according to the manufacture's protocol. Follicular fluid, granulosa cell culture media, oocyte or embryo culture media was added to a 96-well immunoplate pre-coated with human BDNF specific monoclonal antibody. The plate was incubated at room temperature for 2 hours with shaking. Anti-BDNF monoclonal antibody was used as the capture Ab and Anti-BDNF pAb was used as reporter Ab. After washing, the amount of specifically bound pAb was detected using a species-specific anti-IgY antibody conjugated to horseradish peroxidase (HRP) as a tertiary reactant. […] Absorbency was measured at 450 nm using a microplate reader (Model Vmax kinetic microplate reader; Molecular Devices). […]

[2] = tested on: mouse oocytes; test: Effect of NT-4/5 and NT-3 on in vitro maturation of mouse oocytes; type: cell-based
Protocol: Eighteen 4-5 week old female C57BL/6 mice (Taconic Labs, German Town, N.Y.) were given a single intraperitoneal injection of 7.5 IU PMSG (Sigma, St. Louis, Mo.). Five hundred thirty-six (536) immature oocytes were harvested 48 hours after gonadotropin injection. Cumulus cells were removed mechanically (27 gauge insulin needles) at room temperature. Immature oocytes were equally divided into control (n=218) and experimental (n=318) groups and cultured in 5% CO2 in air, 37° C. in Human Tubal Fluid (HTF, Conception Technologies, San Diego, Calif.) for 24 and 48 hours with 1 ng/ml (n=59), 10 ng/ml (n=98) and 100 ng/mI (n=11) of 10 NT-4/5 (Peprotech, Inc. Rocky Hill, N.J.) or 10 ng/ml (n=60) and 100 ng/ml (n=60) of NT-3 (Peprotech, Inc. Rocky Hill, N.J.) to examine the percentage of germinal vesicle breakdown. The percentage of polar body extrusion was also examined. Control oocytes (n=218) were cultured in HTF under the same conditions without addition of NT-4/5 (n=158) or NT-3 (n=60).

[3] = tested on: mouse oocytes; test: Effect of BDNF upon in vitro maturation of mouse oocytes; type: cell-based; settings: 100 ng/ml BDNF
Protocol: Six (6) 4-5 week old female C57BL/6 mice (Taconic Labs, German Town, N.Y.) were given a single intraperitoneal injection of 7.5 IV PMSG (Sigma, St. Louis, Mo.). One hundred sixty (160) immature oocytes were harvested 48 hours after gonadotropin injection. Cumulus cells were removed mechanically (27 gauge insulin needles) at room temperature. Oocytes were equally divided into control and experimental groups. Immature oocytes (n-80) were incubated (5% CO2 in air, 37° C.) in Human Tubal Fluid (HTF, Conception Technologies, San Diego, Calif.) with 100 ng/ml BDNF (Peprotech, Inc. Rocky Hill, N.J.) Control oocytes (n=80) were cultured in HTF under the same conditions without addition of BDNF. […] (See FIG. 3).

[4] = 24 and 48 hours in culture, compared to controls

C=C[C@@]1(C)CC(=O)[C@]2(O)[C@@]3(C)[C@@H](O)CCC(C)(C)[C@@H]3[C@H](O)[C@H](OC(C)=O)[C@@]2(C)O1 [Forskolin]
increase of BDNF production [1]: 11 fold

B1: neurotrophin-4/5 (protein, UniProt P34130 81-210, looked up)
Neurotrophin-4: GVSETAPASRRGELAVCDAVSGWVTDRRTAVDLRGREVEVLGEVPAAGGSPLRQYFFETRCKADNAEEGGPGAGGGGCRGVDRRHWVSECKAKQSYVRALTADAQGRVGWRWIRIDTACVCTLLSRTGRA
notes: neurotrophin, Trk B ligand (Peprotech)
mouse oocyte polar body extrusion ([2]; 1.0 ng/ml, 48 hours, p<0.05): significantly influenced
mouse oocyte polar body extrusion ([2]; 10 ng/ml, 24 hours, <0.01): significantly influenced
mouse oocyte polar body extrusion ([2]; 10 ng/ml, 48 hours, p<0.01): significantly influenced
germinal vesicle breakdown [2, 4]: did not influence
mouse oocyte polar body extrusion [2, 4]: significantly promoted

B2: neurotrophin-3 (protein, UniProt P20783 139-257, looked up)
Neurotrophin-3: YAEHKSHRGEYSVCDSESLWVTDKSSAIDIRGHQVTVLGEIKTGNSPVKQYFYETRCKEARPVKNGCRGIDDKHWNSQCKTSQTYVRALTSENNKLVGWRWIRIDTSCVCALSRKIGRT
notes: neurotrophin, Trk C ligand (Peprotech)
germinal vesicle breakdown [2, 4]: did not alter
mouse oocyte polar body extrusion [2, 4]: did not alter

B3: brain-derived neurotrophic factor (protein, UniProt P23560 19-247, looked up)
Neurotrophic factor BDNF …: APMKEANIRGQGGLAYPGVRTHGTLESVNGPKAGSRGLTSLADTFEHVIEELLDEDQKVRPNEENNKDADLYTSRVMLSSQVPLEPPLLFLLEEYKNYLDAANMSMRVRRHSDPARRGELSVCDSISEWVTAADKKTAVDMSGGTVTVLEKVPVSKGQLKQYFYETKCNPMGYTKEGCRGIDKRHWNSQCRTTQSYVRALTMDSKKRIGWRFIRIDTSCVCTLTIKRGR
notes: neurotrophin, soluble polypeptide growth factor, Trk B ligand (Peprotech)
1st polar body extrusion ([3]; 20 hours, control 6.3%, p=0.017): 18.8%
1st polar body extrusion ([3]; 24 hours, control 6.3%, p=0.01): 20%
1st polar body extrusion ([3]; 48 hours, control 7.5%, p=0.013): 21.3%

Reference: patent publication US7378388B2, “Method of utilizing neurotrophins to manipulate reproductive capacity” (University of Medicine and Dentistry of New Jersey, priority 2001, dated 2008)
